Laboratory results reported in patent US20100249021A1.

B1: polypeptide HR1 combined with HR2C (peptide)
peptide 1: KESTQKAIDGVTNKVNSIIDK
peptide 2: FHDSNVKNLYDKVRLQ
B2: polypeptide HR1 combined with HR2B (peptide)
peptide 1: KESTQKAIDGVTNKVNSIIDK
peptide 2: NAELLVLMENERTLDFHDSNVKN
B3: polypeptide HR1 combined with HR2A (peptide)
peptide 1: KESTQKAIDGVTNKVNSIIDK
peptide 2: RRIENLNKKMEDGFLDVWTY

Key:
Assay in all cases: cell-based or functional assay
[1] = biological target: membrane protein HA of recombinant human influenza virus A/WSN/33 (H1N1) (human influenza virus A/WSN/33 (H1N1)) (UniProt P03454)
[2] = biological target: membrane protein HA of recombinant avian influenza virus QH-WSN (HA of H5N1 strain A/bar-headed goose/Qinghai/1/05) (avian influenza virus H5N1, strain A/bar-headed goose/Qinghai/1/05)
[3] = biological target: membrane protein HA of recombinant human influenza virus A/WSN/33 (H1N1) (human influenza virus A/WSN/33 (H1N1)) (UniProt P03454); remark: listed apart in the source
[4] = biological target: membrane protein HA of recombinant avian influenza virus QH-WSN (HA of H5N1 strain A/bar-headed goose/Qinghai/1/05) (avian influenza virus H5N1, strain A/bar-headed goose/Qinghai/1/05); remark: listed apart in the source

Molecule	plaque inhibitory rate on cells expressing the fusion protein [1] [%]	plaque inhibitory rate on cells expressing the fusion protein [2] [%]	IC50, plaque inhibition on MDCK cells, peptide combination [3] [µM]	IC50, plaque inhibition on MDCK cells, peptide combination [4] [µM]
fusion protein HR2-EGFP expressed on the membrane of MDCK cells (from UniProt P08138 251-272)	43	57.8		
fusion protein HR1-EGFP expressed on the membrane of MDCK cells (from UniProt P08138 251-272)	11	25		
B1			30	41.6
B2			62.5	36.7
B3			52.9	43.6
